Measurements taken from the nanobody polyreactivity screen of Harvey et al. (2022).

Assay: yeast display, Sf9 membrane polyspecificity reagent, FACS + sequencing; frameworks hold sequencing errors
In short: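 A synthetic nanobody library was expressed on Saccharomyces cerevisiae BJ5465 by galactose induction for 36–48 hours. The library was stained for 1 hour at 4 °C with 10% biotinylated, detergent-solubilized Sf9 membrane reagent and enriched with streptavidin microbeads before FACS. Low and high (top ~1%) gates were set on anti-HA fluorescence for expression and streptavidin fluorescence for reagent binding, and each polyreactivity label reflects the gate of origin.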

Sequence	polyreactivity (PSR sort gate)
QVQLVESGGGLVQAGGSIRLSCAASGSTYFVYTMGWYRQATGQERELVAAISGSGRSTSYADSVKGRFTISRDNAKNTVYLQMNSLKPEDNAVYYCAARSHVYLRGSTFEFNYWGQGTQVTVSS	high polyreactivity
QVQLVESGGGLVQAGGSIRLTCAASGSIFKLYAMGWYRQATGKERELVAAISWRGGSTYYADSVKGRFTISRDIAKNTVYLQMNSLKPEDTAVYYCAAEYRQYDYWGQGTQVTVSS	high polyreactivity
QVQLVESGGGLVQAGGSIRLTCAASGSTFWEYVMGWYRQAPGKERELVAAINSGGRTYYADSVKGRFTISRDNAKNTVYLQMNSLKPEDTAVYYCAADTVYRTHHYAQHYYYWGQGTQVTVSS	high polyreactivity
QVQLVESGGGLVQAGGSLGLSCAASGFTFGHYAMGWYRPAPGKERELVAAISIDGGRTYYADSVKGRFTISRDNAKKTVYLQMNSLKPEDTAVYYCAVPGWVYYTSDYDYWGQGTQVTVSS	high polyreactivity
QVQLVESGGGLVQAGGSLGLSCAASGFTFYFYAMGWYRQAPGKERELVAANSRGTSTYYADSVKGRFTISRDNAKKTVYLQMNRLKPEDTAVYYCAARGLWPYDDWGQGTQVTVSS	low polyreactivity
QVQLVESGGGLVQAGGSLGLSCAASGRIFWTYAMGWYRQAPGKERELVASITWSGGSTYYADSVKGRFTISRDNANNTDYLQMNSLKPEDTSVYYCNTDVLAPYDSGYWGQGTQVTVSS	low polyreactivity
QVQLVESGGGLVQAGGSLGLSCAASGRSFRYYAMGWYIQAPGKERELVAAINWSGGSTYYADSVKGRFTISRDNAKNTVYLHMNRLKPEDTAVYYCNTRWYVGDDWGQGTQVTVSS	high polyreactivity
QVQLVESGGGLVQAGGSLGLSCAASGRTFDDYSMGWYRQAPGKEMEFVAGITDNGGGTNYADSVKGRFTISRDNAMNTVYLQMNSLKPEDTAVYYCNAASDDFFPGRSTYGRDYWGQGTQVTVSS	low polyreactivity
QVQLVESGGGLVQAGGSLGLSCAASGRTFSFYGMGWYRQAPGKERELVAAINSDSRTNYADSVKGRFTISRDNAKNTVYLQMNSLKPEDTAVYYCNAYWYTSTGQYSYEYWGQGTQVTVSS	low polyreactivity
QVQLVESGGGLVQAGGSLGLSCAASGRTFTPYAMGWYRQAPGIERELVAAIDTSGGSTYADSVKGRFTMSRDNAKNTVYLQMNSLKQEDTAVYYCNVDSAWYPYETEDDWGQGTQVTVSS	low polyreactivity
QVQLVESGGGLVQAGGSLGLSCAASGRTLYRYAMGWYRQARGKERELVAAIRSGGRTNYADSVKGRFTISRDNAKNTVYLQMNSLKPEDTAVYYCAAGTLRYPSTYVDWGQGTQVTVSS	high polyreactivity
QVQLVESGGGLVQAGGSLGLSCAASGSIFLRYTLGWYRQAPGKERELVAAISWSGGSTYYADSVKGRFTMSRDNAKNNVYLQMNSLKREDTAVYYCNAVYASWSYPGYDYWGQGTQVTVSS	high polyreactivity
QVQLVESGGGLVQAGGSLGLSCAPSGYTFVPYVMGWYRQAPGKERELVAAISRGGSTYYADSVKGRFTISRDHAKNTVYLQMNSLKPEDTAVYYCNAGWFKYYPNLQAFKYWGQGTQVTVSS	high polyreactivity
QVQLVESGGGLVQAGGSLGLSSAASGIIFLTYAMGWYSQAPGKDRELVAAINSTGSTNYADSVKGRFTISRDNAKNTVYLQMNSLTPEDTAVYYCAAEGLPYVRVFDFVSRYDYWGQGTQVNVSS	low polyreactivity
QVQLVESGGGLVQAGGSLHLSCAASGRIFRVNAMGWYRQAPGKERELVAAISYRGGRTYYADSVKGRFTFSRDNAKNTVYLQMNSLKPEDTAVYYCAAKVWARVDGRQFRMEYWGQGTQVTVSS	high polyreactivity
QVQLVESGGGLVQAGGSLLISCAASGSTFLLNAMGWYRQAPGKERELVAAITGSGTTTYYADSVKGRFTISRDNAKNTVFLHMNSLKPEDTAVYYCAAYAYYHTGDDYWGQGTQVTVSS	high polyreactivity
QVQLVESGGGLVQAGGSLLLICADSGITFYGNAMGWYRQAPGKERELVAAISSSGGTTYYADSVKGRFTISRDNAKNTVYLQMNSLKPEDTAVYYCNAVDGIHPYASPSFQQYDYWGQGTQVTVSS	low polyreactivity
QVQLVESGGGLVQAGGSLLLNCAASGITFAGNAMGWYRQAPGKERELLAAISGSGGSTSYADSVKGRFTISRDDAKNTVYLQMNSLKPEDTAVYYGSAASRLYHWHALFGSWGQGTQVTVSS	low polyreactivity
QVQLVESGGGLVQAGGSLLLSCAASGFSFEKNAMGWYIQEPGKERELVAAISRGGSTYADSVKGRFTISRDNAKNTVYLQMYSRKPVDTAVYYCAADTVYIFSSAINGEFGYWGQGTQVTVSS	low polyreactivity
QVQLVESGGGLVQAGGSLLLSCAASGFTFKYYAMGWYRQEPGKERELVAAINRSVGSTYYADSVKGRFTISRDNAKNTVYLQMNSLKPEDTAVYYCNARVRVPVTLHDYWGQGTQVTVSS	high polyreactivity
QVQLVESGGGLVQAGGSLLLSCAASGFTFSVYAMGWYRQEPGKERELVAAINFSGGNTFYADSVKGRFTISRDYAKNTVYLQMNSLKPEDSAVYYCAAEDYKITRYVVRWYEYWGQGTQVTVSS	high polyreactivity
QVQLVESGGGLVQAGGSLLLSCAASGFTFWSYAMAWYRQAPRKERELVADISWSGGSTHYADSVKGRFTISRDNAKNTVYLQMNSLKPEDTAVYYCARRFLYPYDHWGQGTQVTVSS	high polyreactivity

Sequence	polyreactivity (PSR sort gate)
QVQLVESGGGLVQAGGSLLLSCAASGGTLRYYAMGWYRQAPGKEREFVASISRSGGSTYYADSVKGRFTISRDNAKNTVYLQMNSLKPEDTAVYYCAAYWSPGYTTRRGYWGQGTQVTVSS	high polyreactivity
QVQLVESGGGLVQAGGSLLLSCAASGITFYGNAKGWDRQAPGKERELVAAITFSGGITYYADSVKGRFTISRDNAKNTVYLQMNRLKPEDTAVYYCATDPIGGWTRPQRYGDDYWGQGTQLTVSS	low polyreactivity
QVQLVESGGGLVQAGGSLLLSCAASGLTFYLYAMGWYRQAPGKERELVAPISRRGGSTYYADSVKGRFTISRDNAKNTVYFQMKSLKPEYTAVYYCAGAFYSQTDYKFYYWGQGTQVTVSS	high polyreactivity
QVQLVESGGGLVQAGGSLLLSCAASGRIFRWNAMGWYRQAPGKERELVAAIRSRGGSTYYADSVKGRFTISRDNAKNTVYLQMNSLKPEDSAVYYCNARIASYRSIYDYWGQGTQVTVSS	high polyreactivity
QVQLVESGGGLVQAGGSLLLSCAASGRTFGYYAMGWYRQAPGKETELVAAISSGGGTYYADSVKGRFTISRDNAKNTVYLQMNSLKPEDTAVYYCAATGWVYWGQFDYWGQGTQVTVSS	low polyreactivity
QVQLVESGGGLVQAGGSLLLSCAASGRTILTYALGWNRQAPGKERDLVAAISKRGGSTYYADSVKGRFTISRDNAKNTVYLQRNSLKPEDTAVYYCAADNVNHYGYWGQGTQVTVSS	high polyreactivity
QVQLVESGGGLVQAGGSLLLSCAASGRTLFVYDMGWYRQAPGKERELVAAITWGVGSTYYADSVKGRFTISRDNAKNTVYLQLNSLKPEDTAVYYCNAVAIRYYRWYYYWGQGTQVTVSS	high polyreactivity
QVQLVESGGGLVQAGGSLLLSCAASGRTSAYYAMGWYRQAPGKERELDAGITRGGRTNDADSVKWRFTISRDNAKYTDYFQMNSLNPEDTAVYYCAAKYGFYWNSRTSGYWGQVTQVTVSS	high polyreactivity
QVQLVESGGGLVQAGGSLLLSCAASGSIFDAYAMGWYRQSRGKERELVAAITSGGSTYYADSVKGRFTISRDNAKNNVYLQMNSLKPEDTAVYYCAAQYYDYKTTYDYWGQGTQVTVSS	high polyreactivity
QVQLVESGGGLVQAGGSLLLSCAASGSIFGKNAMGWYRQAPGKERELVAAISRSGARTYYADSVKGRFTISRDNAKNTVYLQMNSLKPEDTAVYDCAAVYWWAYRGTYSSLYKHFVYWGQGSQVTVSS	high polyreactivity
QVQLVESGGGLVQAGGSLLLSCAASGSIFITYAMGWYRLAPGKERELVAAIRDSGDRTYYADSVKGRFTISRDNAKNTVYLQMNSLKPEDTAVYDCNARWQEPLKYDYWGQGTQVTVSS	low polyreactivity
QVQLVESGGGLVQAGGSLLLSCAASGSIFPYYAMGMYRQAPGKERELVAAITDGGSTNYADSVKGRFTISRDNAKNTFYLQMNSLKQEDTAVYYCNKLPGYYDYDYWGQGTQVTVSS	low polyreactivity
QVQLVESGGGLVQAGGSLLLSCAASGSIFYSNAMGWYRKAPGKERELVAAIRRSGGSTYYADSVKGRFTISRDNAKYTVYLQMNSLKPEDTAVYYCATTRRVPGEYWGQGTQVTVSS	high polyreactivity
QVQLVESGGGLVQAGGSLLLSCAASGSTFDDKAMGWYRQAPGKERELVAAISSDGSTNYADSVKGRFTISRDTAKNTVYLQMNCLKPADTAVYYCAAESPWDWGSWFEALYDYWGLGTQVTVSS	high polyreactivity
QVQLVESGGGLVQAGGSLLLSCAASGSTFDWYVMGWYRPAPGKERELVAAINQGSGSTYYADSVKGRFTISRDNAKNTVYLQMNSLKPEDTAVYYCAADRYGAGYLYWPYDYWGQGTQVTVSS	low polyreactivity
QVQLVESGGGLVQAGGSLLLSCAAYGSTFWYNAMGWYRQAHGKESELVAAITWTGSRTYYADSVKGRFTISRDNAKNTVYLQMNSLKPEDTAVYYCNRTRSFTRYDVFYGTIPAFDYWGQGTQVTVSS	high polyreactivity
QVQLVESGGGLVQAGGSLLLSCSASVLIFYDNDMGWYRQAPGKERVFVAAITSLGGSTYYADSVKGRFTISRDNAKNTVYLQMNSLKPEDTAVYYCNVKSKYYSPNYDYWGQVTQVTVSS	low polyreactivity
QVQLVESGGGLVQAGGSLLLTCAASGITFGLYAMGWYREAPGKERELVAAIFSGGITYYADSVKGRFTISRDNAKNTVYLQMNSRKPVDTAVYYCAAYKYSYKYYYWGQGTQVTVSS	low polyreactivity
QVQLVESGGGLVQAGGSLPLSCAASGFNFRSYAMGWYRQAPGTERELVAAISSGGSTYYADSVKGRFTISRDNAKNTVYLQMNSLKPEDTAVYYCGASRYYGYGHWGQGTQVTVSS	high polyreactivity
QVQLVESGGGLVQAGGSLPLSCAASGRIFNQYGMVWYRQAPGKERELVAAIRSGDSTNYADSVKGRFTISRDNAMNTVYLQMKSLKPEDPAVYYCARDRPGDYAGYDYWGQGTQVTVSS	low polyreactivity
QVQLVESGGGLVQAGGSLPLSCAASGRIFNYYAMGWYRQAPGKERDFVATISTSGGSTYYADSVKARFTISRDNAKNTVYLQMISLKPEDTAVYYCAARRYYSLRTFLYWFSKYDYWGQGTQVTVSS	high polyreactivity
